Reference: a protein production outcome set (Wang et al. 2014)

Test: label from the status in PepcDB records
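Note: failed if final PepcDB status was selected cloned or expressed and not failed if soluble or beyond.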

**Q.** For “MHPVKALKQGVKNGTMPIIARFYGIIIKMFFNEHLPPHFHALYGEYNAIFNINTLEMIEGDMPLRARKLVVEWAENHQKELEIMWETKEFKQLPGLELEHHHHHH”, which protein production is on record?
**A.** The protein production was “not failed”.

**Q.** For “MHRHVVTKVLPYTPDQLFELVGDVDAYPKFVPWITGMRTWNGRVDGAVSTVDAEAQVGFSFLREKFATRVRRDKDARSIDVSLLYGPFKRLNNGWRFMPEGDATRVEFVIEFAFKSALLDAMLAANVDRAAGKLIACFEARAQQLHGALEHHHHHH”, which protein production is on record?
**A.** The protein production was “not failed”.

**Q.** With “MHSIRNFFCGQWSSSVRLDEKTVIITGANTGIGKETARDLARRGARVVMACRDLEKAEAARRELMDNSGNQNIVVKKLDLADTKSIKAFAELINKEEKQVNILINNAGIMMCPYSKTADGFEMQFGVNHLGHFLLIYLLLDLLKKSTPSRIVNVASVAHTWSGIHLEDINSEKVYSPRRAYGQSKLANILCTRSLAKRLQGSGVNVYSLHPGVVQSELFRNLSKPAQIAFKVFSPFTKTTSQGAQTTIYCAIEPELDRESGGYYSDCGPAQCSREASDDEMAQKLWELSCQMLGIIWD” as the sequence, how does the protein production read?
**A.** Its protein production is “failed”.

**Q.** With “MHSNSWMSCKAVDNAEKEALLLQLQADADGPRRRCEIRERSLGQAVMLALLSLLLVLLGGWLASLPSAWQLRSAQLWFWLPGALMLGAGLVGLAAAEALRRRHGQQVLALTPDTLQFANAPDPTPWVCFDGFELEQRYLSLGLVFSVIAGSRAPALAPACFKSLAAPHAWPVAAGMRVRLWLFNPMLDGQRLDFQALTDLLYAYLNAAQARSTLGQLFPEVQRVGATQ” as the sequence, how does the protein production read?
**A.** Its protein production is “failed”.

**Q.** With “MHSQTLRLASYNIQKCVGLDLRRQPRRILQVLDAMGARIAVLQEADKRLPPRPAALPHFVLEEAGWQVVDLGGAGSLGWHGNAVIWKGAGITQLASAHHDLPGFEPRGAVRVEFDTPIGPLRVLGLHLGLLPASRRDQIVHLAHDLERLPPMPTVWAGDFNEWSRQPVLDHLAPMLRFLPARPSFPAPRPLGALDRIAHSPELSAVAHGVFAERPAPIASDHLPVWADLTRPV” as the sequence, how does the protein production read?
**A.** Its protein production is “failed”.

**Q.** For “MHVFGLPAIGALAGTQAYWVSLVDVYAAQARIAATGMYPSGRVKRAFPGCCRGYWGDAGGSVRAGWISAAWPYGRFDRSGRPVGGAQPQVIWCEVGCGMGEHELMIFGNKDLPQRTPERPLVTFAVFAYNQESFIRDAIEGAFAQTYEPLEIILSDDCSDDETFLIMQQMAAAYRGPHKVVVRKNHENLGVLGHVLTVAKMAAGKYMVVAAGDDISFPDRTERQVSFLERESDRVVVVSSHDVIFDENCDLPNQKQDSNLRLRKQWYKNNNSWFHGGTACYRLGVLRELPLPTSRLLYEDMALINIFKAMGYSSGFMEIPTIRRRFHQLNLGMQRPERNPWDEERRILRRIEHAADVMDYAADVIEGEGGKAAKLRVQAAIMRKYAKWPDLNFVDRFLLFFESLKAGYMRKASAKVLLGKDVVLDIRSLWC”, which protein production is on record?
**A.** The protein production was “failed”.

**Q.** Which protein production does the source give for “MHVQEWLDTVPAAAVYAVVGLVIGLESLGIPLPGEIILVSAALLSSQHGGIDPLVLGACASAGAVIGDSIGYAIGRKGGRPLLAWLGGKFPRHFGEGHVATAERSFQKWGMWAVFFGRFVALLRIFAGPLAGVLRMPYWKFLIANVLGGIVWAGGTTAVIYYVGVVAEDWLKRFSWLGLVVAVLIGIASMLIVKRRAGKAQQTPEPVAAGE” here?
**A.** The protein production was “failed”.

**Q.** Which protein production does the source give for “MHVVQGAKTMWNKIQVVSHGRGGLRSQCCETTMIGHPTPTPAQDSETQPSPQEHIPEKKPLPKEIGGRDGPEPTRYGDWEKNGRCIDFLEHHHHHH” here?
**A.** Its protein production is “failed”.

**Q.** With “MHYTETGSPRLAILIDADNTFRFINVIDELLEEISKYGDVSIRRIYGDWTETKMQRWKEILPKYAIQPIQQYANTKGKNSTDSALIIDAMDLLYTAPLDGFCIVSSDSDFTRLATRLRESGKQVYGFGEQKTPDSLIAACNKFIYIEILSKEKLSDPPEPTPISTSETSASVESKPPAAPSTPLSPAALAPGIRKSSRELAMDTRLISLIRSAISALSDDDGYAHIGEIKKYMIKNFPAFDSRNYGYSKFSELIKATGLFDIDKDKQRIKDKRKK” as the sequence, how does the protein production read?
**A.** Its protein production is “failed”.

**Q.** For “MIAHLLLSLALLLTAAKLGGVLAVRLGQPAVLGELVAGIALGALPALGLHGAAGLAHDPVLEALAELGVILLLFEVGLSTRLAELVKVGASAFLVACIGVVAPMALGYGVGAWLLPGASPLAHLFLGAALSATSVGITARVLRDMGRIGSPAGQIILGAAVIDDVLGLLVLAVMVGLAGGGGDGAGTWTVLALVGAKAVGFLGAALVAGRWAAPRLFAVAARLRAQGVLFTLALAVCLALSWAASAVELAPIVGAFAAGLVLEGVPFAELSGGEERLEERLTPLAAVLVPLFFVRMGLAVDLGALGTGSLALAGALSVAAIVGKQACALAVVTPGVDRLAVGLGMIPRGEVGLIFANIGLSLTAGGRPLLGPGAFAAIVAMVLVTTLVTPPLLRWRMGSAPAAAAVRPGPGVRAA”, which protein production is on record?
**A.** Its protein production is “failed”.

**Q.** Which protein production does the source give for “MIAHPVVGIVGIAGAYGRWLAQFLRTRMGLEVIGVDPALPDGLDDATLVARADVLIFSAPIRHTAALIERYAALAGARAAEQLWLDVTSIKQAPVAAMLASQAEVVGLHPMTAPPKSPTLKGRVMVVCRARVQRWSGWVDALCSALQAECVYATPEHHDRVMALVQAMVHATHLAQAGTLRDYAPLLGELRTLMPYRSASFELDTAVIARILSLNPSIYEDIQFGNPYVAEMLDRLLAQLQELRGLVVQGDDAARLRFRQAFLDANAQALQGDSLAAGNYTYERVGYLLADLTEPLTLSVYLPEDQPGSLRVLLHVFEQHGVNLSSIHSSRTPGGELHFRMGFEPESDRAALGRAAAQIDADRIGRVLERVDRER” here?
**A.** Its protein production is “failed”.

**Q.** For “MICLTSKMMAFLPYFLELKGKRVNIQALINDRVSQAIEAAGAPAGTPALVRQSAKAQFGDYQANGIMGAAKQLGTNPREFAQKVLDVLNLEGIASKTEIAGPGFINIFLSEEFLAAQAEAALADAR”, which protein production is on record?
**A.** The protein production was “failed”.

**Q.** Which protein production does the source give for “MICTEALQRISFSSDLGQSDKAPPPVIEPSGLIRRDETLLDSSNSDFEFHISNSFDPGDSSPADEIFADGMILPFHVTAASTVPKRLYKYELPPITSSLSPSPLSPQPLPTKHSEKETNGRASGANSDSEAEKSSKSFWSFKRSSSLNCDIKKSLICSFPRLTRSNSTGSVTNSKRAMLRDVNNHRPSSRSSCCNAYQFRPQKHTGKKGEGGGSFSVIPVLNGPSTFGLGSILRHSNSKDKTKTKKKKNKK” here?
**A.** Its protein production is “failed”.

**Q.** Which protein production does the source give for “MIDLRSDTVTKPTEEMRKAMAQAEVGDDVYGEDPTINELERLAAETFGKEAALFVPSGTMGNQVSIMAHTQRGDEVILEADSHIFWYEVGAMAVLSGVMPHPVPGKNGAMDPDDVRKAIRPRNIHFPRTSLIAIENTHNRSGGRVVPLENIKEICTIAKEHGINVHIDGARIFNASIASGVPVKEYAGYADSVMFCLSKGLCAPVGSVVVGDRDFIERARKARKMLGGGMRQAGVLAAAGIIALTKMVDRLKEDHENARFLALKLKEIGYSVNPEDVKTNMVILRTDNLKVNAHGFIEALRNSGVLANAVSDTEIRLVTHKDVSRNDIEEALNIFEKLFRKFS” here?
**A.** The protein production was “not failed”.

**Q.** Which protein production does the source give for “MIDNIIRKKWMLKHVRVIVPLLVLLFSLLLTVFVVYTAYSLQLRHNRTLLENLADRQTMALQQFVDGDIHFIGSAANFFRSSTSDDWVRFHTFAEETLKGSQSLIALQWLVKVEPPQAETFTARMQQRFPEFTLYTVPKTGEIKYGFGTDDQAKYVLSDIYPLNYDNRKLLGFYSERERFKRILADIVVNRRPNVSDKVRLLQDGIDKSIVKDGMLVYHPVFSSEDDRSLLGVMVGVVRLSTYFEKLVQISVMEQDLDMRVIDTGFDSEDSPVLYQSPMWRADDEPKIERKLVLPNRDWVLEFELHQPINHSEEWVLLGLGLGGVIISLLLSYIMRMQLEEKQRLTDMIEERTAELRYLVEHDSLTNIYNRRFFSQHLCKMLDEKQSFTLISFDIDRFKQINDSYGHLAGDYALTHVVDVVKKELVESDIFARFGGDEFAILSSVTDETALYTYLERIRKVVEAEPVMLNAETPLTLTISIGASINCEYSEPEILQSVDDQLYLSKSKGRNRVSIAHNAAR” here?
**A.** The protein production was “failed”.

**Q.** For “MIDTMQYGKNDSLRDEIKAYWSGRAATFDLSPGHEIFSEDERAAWHALILKHLGRGEGRKALDLASGTGVISHLMDDLGFQVTGMDWSETMLGLAREKAKSRGRNIRFFVGDAENTMEPDESADVIITRHLVWTLVDPQASFAEWFRVLKPGGKLLIVDGDFVNTGWRERLVKKLAVSLESIGLVKADQPHKPADPENTFNSILSRVYFSKGARAGDVATMLGATGFEPVSVDQELRAIHRAQAKNFSLLKGILRGLQHRYAVCAVKPDTSVKG”, which protein production is on record?
**A.** Its protein production is “failed”.

**Q.** With “MIDWPLAELLPHAGDMILIDQVLAFDEEQIRTRLEVRPGGLFNRPDGSLPAWVGVELMAQSVAAYAGCRARQQGLPVELGFLLGTRKFECNVEHFPLGSTLEIHALRSLEDDNGMGVFECHLSGPGITASARLNVFRPLEHHHHHH” as the sequence, how does the protein production read?
**A.** Its protein production is “failed”.

**Q.** For “MIEAIAIAIAVLGAVLLLILFARIRAVDAELKLKKHRAKDAGLADLLNYAAVVDDGVIVGKNGSFMAAWLYKGDDNASSTEEQREMVSFRINQALAGLGNGWMVHVDAVRRPAPNYSERGVSSFPDSVSFAIDEERRRLFEGLGAMFEGYFVLTVTWFPPVLAQRKFVELMFDDDAVAPDHTARTTGLIAQFKREITSLESRLSSAVKMTRLRGQKVVSEEGREVTHDDFLSWLQFCVTGLHHPVMLPSNPMYLDAVIGGQELWGGVVPKIGRKFIQVVAIEGFPLESTPGVLSALAELPSEYRWSSRFIFMDQHESLKHLDKFRKKWKQKIRGFFDQVFNTNTGSINQDAAAMVGDAEAAIAEVNSGLVAAGYYTSVVVLMDEDRERLAASALLVEKAVNRLAFAARIETINTLDAYLGSLPGHGVENVRRPLINTMNLADLLPTSSIWTGSATAPCPMYPPLSPALMHCVTVGATPFRLNLHVRDLGHTFMFGPTGAGKSTHLGIIAAQLRRYAGMSIYAFDKGMSMYPLAAGIRAATKGKSGLHFTVAADDDRLAFCPLQFLETKGDRAWAMEWIDTILALNGVNTTPAQRNEIGNAIMSMHASGARTLSEFSVTIQDEAIREAIKQYTVDGSMGHLLDAEEDGLSLSDFTVFEIEELMNLGEKFALPVLLYLFRRIERALKGQPSVIILDEAWLMLGHPAFRAKIREWLKVLRKANCLVLMATQSLSDAANSGILDVIVESTATKIFLPNVYARDEDTSALYRRMGLNARQIEILATAIPKRQYYYVSENGRRLYDLALGPMALAFVGASDKESVATIKSLEAKFGHEWVHEWLAGRGLNLNDYLEAA”, which protein production is on record?
**A.** The protein production was “failed”.

**Q.** Which protein production does the source give for “MIEENLVEFIEILMLATAVAVTVKFIRLPYTIALVLAGLFVGLAGLLPEVPLSREIVFFIFLPPLLFEAAMNMDLKELRENFGPIALIAFLGVVVTTTVVGFSLNWILGIPLALALIFGAMVSATDPVSVLATFKSISAPKKLSILIEGESVLNDGAAIVVFAIALEMMLKGVFDPLNAALDFAVVCVGGAAVGLAVGYLAYRILAKIDDALVEIAVTIVAAYLGFVLAERFHFSGVIAVVAAGLILGNYGRDFSMSPTTRVIMLDFWSVIVFLVNSIIFILIGVNTHITIFSAWKEILVAIAAVILARAFVVYPVMTYYRFPNLWKHVVFWGGLRGVIPVALALSFGNQLLSAMAFGVVLFSLLLQGISLEIFVKRKFVSESERELEEIIARYIAARSAKFELMKAVEQGRIVEPVAREMLPNLDAEIEELRSKLEEKIRGGMGSKLRKAAVKYVIDAKKSAVVDAMAGGLVSQEVALEIMRELDSKTAELME” here?
**A.** Its protein production is “failed”.

**Q.** For “MIEENYKEERYTERVNQGGVWGSFKRKFLSWADDDAGYDEEKDYENLLNNEKLQKKLREWRRTKNQQNNNKTFNTNDTNSFETIQSVIAEQLNVDAVQVTPEAEFVKDLGADSDVVELIMALEEKFGIEIPDEQAEKIVNVGDVMRYIEKQLI”, which protein production is on record?
**A.** The protein production was “failed”.
